Reference: patent US20230087785A1, “Leucine-Rich Repeat Kinase 2 Allosteric Modulators” (VIB VZW, priority 2020, published 2023)

Target: T1, endogenous mouse LRRK2 (RAW264.7 cells) (mouse, UniProt Q5S006 1-2527)
T1 construct: also called endogenous LRRK2
Experiment: immunofluorescence colocalisation of GFP-Nb and LRRK2 in RAW264.7 cells
Excerpt: To test whether Nbs can trace and visualize endogenous LRRK2 in fixed cells, we generated green fluorescent protein (GFP)-Nb fusions (fluobodies) as described before. Recently, it was shown that LRRK2 is recruited to phagosomes upon induction of phagocytosis in immune cells. Therefore, RAW264.7 cells were transfected with these fluobodies and treated with killed yeast bioparticles “zymosan” to induce phagocytosis.
RAW264.7 cells (ATCC® SC-6003™) were transfected with peGFP-Nb constructs using JetOPTIMUS (Polyplus transfection) for 24 hrs and then stimulated with Zymosan particles (Sigma Aldrich) for 30 mins ([…]). Immunostaining for LRRK2 was performed as reported before. Briefly, cells fixed with 4% (w/v) paraformaldehyde for 30 min, followed by treatment with 100% EtOH at −20° C. Sampled were permeabilized with PBS/0.5% Triton X-100 and blocked with 3% BSA. Primary antibodies (rabbit anti-LRRK2, c41-2, Abcam and mouse anti-GFP, G6539, Sigma Aldrich) were diluted in PBS containing 3% BSA and 0.5% Triton X-100 and incubated overnight at 4° C. […] Cells were washed twice with 1×PBS and mounted with Fluroshield antifade reagent with DAPI (SigmaAldrich). Images were acquired on Zeiss LSM800 confocal laser scanning microscope. Image analysis of z-scan was done using the Zeiss microscope software ZEN.

T1 sequence (Q5S006 whole entry): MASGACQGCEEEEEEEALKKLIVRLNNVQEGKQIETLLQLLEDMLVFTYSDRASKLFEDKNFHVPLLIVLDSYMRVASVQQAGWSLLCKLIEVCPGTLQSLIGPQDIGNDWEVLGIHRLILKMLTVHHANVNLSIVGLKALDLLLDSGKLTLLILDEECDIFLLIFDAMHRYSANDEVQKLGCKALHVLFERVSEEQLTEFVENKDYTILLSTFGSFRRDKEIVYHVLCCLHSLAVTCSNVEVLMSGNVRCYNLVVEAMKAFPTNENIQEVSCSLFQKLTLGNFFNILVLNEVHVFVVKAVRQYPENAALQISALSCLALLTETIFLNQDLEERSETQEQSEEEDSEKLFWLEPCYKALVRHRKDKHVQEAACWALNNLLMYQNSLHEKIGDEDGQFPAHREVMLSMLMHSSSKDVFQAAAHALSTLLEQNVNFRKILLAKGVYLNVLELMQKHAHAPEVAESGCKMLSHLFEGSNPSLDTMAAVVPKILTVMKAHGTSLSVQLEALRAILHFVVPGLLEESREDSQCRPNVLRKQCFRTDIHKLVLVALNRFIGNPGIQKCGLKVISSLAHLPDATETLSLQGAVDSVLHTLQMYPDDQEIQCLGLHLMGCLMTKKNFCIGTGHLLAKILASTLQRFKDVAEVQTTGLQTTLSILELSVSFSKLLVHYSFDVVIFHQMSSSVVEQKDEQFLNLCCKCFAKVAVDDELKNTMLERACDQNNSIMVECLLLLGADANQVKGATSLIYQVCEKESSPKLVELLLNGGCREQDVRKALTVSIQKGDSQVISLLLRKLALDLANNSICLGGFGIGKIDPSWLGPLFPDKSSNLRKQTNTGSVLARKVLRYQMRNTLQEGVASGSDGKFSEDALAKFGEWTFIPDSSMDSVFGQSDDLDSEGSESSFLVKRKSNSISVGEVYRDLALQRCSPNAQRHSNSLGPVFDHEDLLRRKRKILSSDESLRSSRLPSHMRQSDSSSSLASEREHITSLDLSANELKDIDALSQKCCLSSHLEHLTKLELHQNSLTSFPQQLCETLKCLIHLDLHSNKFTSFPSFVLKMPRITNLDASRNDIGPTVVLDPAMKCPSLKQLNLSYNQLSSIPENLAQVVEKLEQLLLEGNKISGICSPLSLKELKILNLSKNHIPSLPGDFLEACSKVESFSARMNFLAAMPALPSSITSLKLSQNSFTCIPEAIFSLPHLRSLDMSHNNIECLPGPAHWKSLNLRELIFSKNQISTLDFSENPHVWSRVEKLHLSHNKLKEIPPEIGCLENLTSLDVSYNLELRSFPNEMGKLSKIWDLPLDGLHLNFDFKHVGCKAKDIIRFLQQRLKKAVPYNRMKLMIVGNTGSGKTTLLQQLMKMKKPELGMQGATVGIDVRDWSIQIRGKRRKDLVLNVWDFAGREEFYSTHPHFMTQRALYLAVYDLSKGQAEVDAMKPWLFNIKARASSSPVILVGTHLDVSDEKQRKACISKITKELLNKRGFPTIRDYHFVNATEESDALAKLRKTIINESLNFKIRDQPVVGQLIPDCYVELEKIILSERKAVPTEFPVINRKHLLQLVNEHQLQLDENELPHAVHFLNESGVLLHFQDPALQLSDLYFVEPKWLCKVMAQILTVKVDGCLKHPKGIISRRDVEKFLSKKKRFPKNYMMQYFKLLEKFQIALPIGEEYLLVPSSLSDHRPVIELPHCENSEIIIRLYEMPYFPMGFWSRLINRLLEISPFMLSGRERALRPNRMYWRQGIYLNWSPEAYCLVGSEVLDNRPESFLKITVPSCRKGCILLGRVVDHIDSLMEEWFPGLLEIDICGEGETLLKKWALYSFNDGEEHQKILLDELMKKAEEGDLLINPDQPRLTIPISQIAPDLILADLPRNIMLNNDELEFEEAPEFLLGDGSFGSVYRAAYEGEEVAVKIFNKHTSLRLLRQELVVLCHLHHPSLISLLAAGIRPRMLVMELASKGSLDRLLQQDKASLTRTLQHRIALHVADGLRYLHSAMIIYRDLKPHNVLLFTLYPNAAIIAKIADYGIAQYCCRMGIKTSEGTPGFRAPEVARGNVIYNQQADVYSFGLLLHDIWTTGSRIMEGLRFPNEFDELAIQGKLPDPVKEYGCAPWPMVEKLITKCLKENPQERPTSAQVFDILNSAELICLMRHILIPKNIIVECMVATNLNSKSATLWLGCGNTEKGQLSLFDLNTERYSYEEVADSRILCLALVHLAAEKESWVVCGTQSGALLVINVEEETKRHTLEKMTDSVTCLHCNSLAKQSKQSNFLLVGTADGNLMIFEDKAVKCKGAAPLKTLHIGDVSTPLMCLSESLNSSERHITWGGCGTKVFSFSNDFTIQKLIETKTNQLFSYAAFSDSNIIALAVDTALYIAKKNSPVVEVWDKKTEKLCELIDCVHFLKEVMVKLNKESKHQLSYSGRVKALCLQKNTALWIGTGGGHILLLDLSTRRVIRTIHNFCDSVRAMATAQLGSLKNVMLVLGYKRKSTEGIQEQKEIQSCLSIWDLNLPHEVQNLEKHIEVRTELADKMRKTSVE

Row | Binder | binding result
1 | Nb23 (CA13612)-GFP fusion (VHH, expressed in cells as intrabody; also called GFP-Nb23; fluobody Nb23; not shown: enhanced GFP fused to the C-terminus of the Nb (pEGFP-N1)) VHH: QVQLVESGGGLVQAGGSLRLSCAASGRTFSRYTMGWFRQAPGKDREFVARITTSGAVTTYADSAKGRFTISRDNAKNTVYLQMNTLKPEDTAVYYCAAGQGQLSSQSRFVDYWGQGTQVTVSS | binds
2 | Nb22 (CA13611)-GFP fusion (VHH, expressed in cells as intrabody; also called GFP-Nb22; fluobody Nb22; not shown: enhanced GFP fused to the C-terminus of the Nb (pEGFP-N1)) VHH: QVQLVESGGGLVQAGGSLRLSCAASGRTFSSYTMGWFRQAPGKEREFVAAIRWSGGSTYYADSVKGRFTISRDNAKNTVYLQMNSLKPEDTAVYYCAASDRGGFIATSGGWMDYWGKGTQVTVSS | binds

More lines, now with the values ahead:

Row | binding result | Binder
3 | binds | Nb38 (CA14133)-GFP fusion (VHH, expressed in cells as intrabody; also called GFP-Nb38; fluobody Nb38; not shown: enhanced GFP fused to the C-terminus of the Nb (pEGFP-N1)) VHH: QVQLVESGGGLVQPGGSLRLSCAASGSIRSIATSAWYRQPPGKQRELVAGISSGTTTNYADSVKGRFTISRDNAKNTVYLQMNSLKPEDTAVYYCHAWISGTWISGQGTQVTVSS
4 | binds | Nb40 (CA14135)-GFP fusion (VHH, expressed in cells as intrabody; also called GFP-Nb40; fluobody Nb40; not shown: enhanced GFP fused to the C-terminus of the Nb (pEGFP-N1)) VHH: QVQLVESGGGLVQPGGSLRLSCVASGTIYAINRMGWYRQAPGKQRELVALITLGGGTNYGDSVKGRFTISRDNAKNTGYLQMNSLKPEDTAVYYCKVESSGYTDVFWGQGTQVTVSS
